# Assay results from patent publication US20220143148A1, “COMPOSITIONS AND METHODS FOR MODULATING CGRP SIGNALING TO REGULATE INTESTINAL INNATE LYMPHOID CELLS” (The Broad Institute, Inc., priority 2019, published 2022).
# B1: OVA (protein, UniProt P01012 2-386, looked up)
# Ovalbumin: GSIGAASMEFCFDVFKELKVHHANENIFYCPIAIMSALAMVYLGAKDSTRTQINKVVRFDKLPGFGDSIEAQCGTSVNVHSSLRDILNQITKPNDVYSFSLASRLYAEERYPILPEYLQCVKELYRGGLEPINFQTAADQARELINSWVESQTNGIIRNVLQPSSVDSQTAMVLVNAIVFKGLWEKAFKDEDTQAMPFRVTEQESKPVQMMYQIGLFRVASMASEKMKILELPFASGTMSMLVLLPDEVSGLEQLESIINFEKLTEWTSSNVMEERKIKVYLPRMKMEEKYNLTSVLMAMGITDVFSSSANLSGISSAESLKISQAVHAAHAEINEAGREVVGSAEAGVDAASVSEEFRADHPFLFCIKHIATNAVLFFGRCVSP
# System: small intestinal immune cells
# Assay: Droplet-based scRNA-seq of small intestinal immune cells (LP and PP), OVA vs PBS, clustering and differential expression
# Type: in vivo, mouse
# Conditions: for percentage of expressing cells in OVA-treated group / LN (average fold change): cluster ID 12, LP
# From the text: To comprehensively characterize small intestinal immune cells, Applicants generated scRNA-Seq profiles for 58,067 immune cells collected from lamina propria (LP) and Peyer's patch (PP) regions at steady state and after induction of a type 2 inflammatory reaction to ovalbumin (OVA) (Brandt et al., 2003) (FIGS. 1A and 8A). To ensure sufficient representation of rare cells, Applicants combined a normalization strategy—removing by flow sorting either a portion of IgD+ naïve B cells, which are the most abundant cell type in PPs, or all CD19+ and CD3+ T cells (FIG. 8B, Methods)—with profiling of a sufficiently large number of cells number (P>0.99 to recover at least 15 cells from each cluster, Methods) by massively parallel scRNA-seq (Haber et al., 2017) (Methods). Applicants obtained 36,797 and 21,270 high quality cells passing initial filtering (Methods) from PP and LP regions, respectively.
# Overall, Applicants annotated 27 cell subsets across the two compartments, spanning T cells, B cells, ILCs, dendritic cells (DCs), myeloid cells and stromal cells, in frequencies ranging from 0.07% to 14%. Briefly, Applicants first partitioned the cells from the PP regions by unsupervised clustering (Methods) into 46 clusters, retained the 97% of cells that were robustly assigned cell identities in each cluster (Methods), assigned the cells from the LP regions to the 46 clusters using a classifier (Methods), and visualized the data with scvis (Ding et al., 2018), a deep generative model-based method (FIGS. 1B and 8C, Methods). Next, Applicants identified genes that were differentially expressed between the cells in each cluster and the remaining cells (Table 1, Methods), as well as between pairs of clusters (Table 2), to elucidate identities of similar cell types/states. Applicants excluded from downstream analysis clusters mostly consisting of contaminants from epithelium, likely doublets, or cells with a small number of Unique Molecular Identifiers (UMIs) (FIGS. 1C and 8D), or lacking distinct markers (Methods). Altogether, Applicants retained 27 clusters spanning 85% of the cells and each associated with distinct marker genes (FIG. 8E, Methods).
# To induce allergic reaction to OVA, 6 to 7 weeks old mice were sensitized twice, two weeks apart, with 50 μg of OVA plus 1 mg of aluminum potassium sulfate adjuvant via intraperitoneal injection. Two weeks later, mice were orally administered with 50 mg of OVA on every other day for a total of five times. 1 μg of α-CGRP peptide was administered simultaneously when indicated. Mice were deprived of food for 3-4 hours in cages with wood chip bedding for limiting antigen degradation in the stomach before each intragastric challenge.
# Isolation of cells from Peyer's patches (PPs). Peyer's patches (PPs) were carefully dissected from the small intestine under a stereo microscope using a fine scissor, pierced once with a fine forcep. Tissues were digested in freshly made digestion buffer (RPMI-1640 containing 100 μg/ml Liberase™ and 50 μg/ml DNase I at 37° C. on a roto-mixer. After 15 min, tissues were very gently mixed using a 1 ml pipette. The supernatant was collected and added to ice-cold MACS buffer (pH 7.4; PBS plus 2% FCS and 2 mM EDTA). Pre-warmed (37° C.) fresh digestion buffer was added to the remaining tissues. After rotation at 37° C. for 15 min, the mixture was vigorously mixed using a 1 ml pipette for 1 min. Supernatants from the two steps were combined and passed through 70 μm filters and stained for FACS (below).
# Isolation of cells from the lamina propria (LP). The small intestines were opened longitudinally and washed in ice-cold PBS. For scRNA-seq, roughly 0.5 cm of fragments from each of the distal, middle and proximal regions without visible PPs were collected. Epithelial cells were dissociated by tissue rotation in pre-warmed (37° C.) PBS containing 10 mM EDTA at 37° C. for 15 min, followed by additional incubation on ice for 15 min. Tissues were then shaken vigorously. […]
molecule,measurement,setting,value
B1,Rilpl2: LN (average fold change),"cluster ID 6, PP, OVA vs PBS",−0.158
same,Rnase6: LN (average fold change),"cluster ID 6, PP, OVA vs PBS",0.160
same,Rnf19b: LN (average fold change),"cluster ID 6, PP, OVA vs PBS",−0.314
same,Rpn2: LN (average fold change),"cluster ID 6, PP, OVA vs PBS",0.272
same,Runx3: LN (average fold change),"cluster ID 6, PP, OVA vs PBS",−0.200
same,S1pr4: LN (average fold change),"cluster ID 6, PP, OVA vs PBS",0.331
same,Sell: LN (average fold change),"cluster ID 6, PP, OVA vs PBS",0.172
same,Selplg: LN (average fold change),"cluster ID 6, PP, OVA vs PBS",0.183
same,Sf3b1: LN (average fold change),"cluster ID 6, PP, OVA vs PBS",0.237
same,Siah2: LN (average fold change),"cluster ID 6, PP, OVA vs PBS",−0.303
same,Skil: LN (average fold change),"cluster ID 6, PP, OVA vs PBS",−0.246
same,Sla2: LN (average fold change),"cluster ID 6, PP, OVA vs PBS",0.243
same,Smc6: LN (average fold change),"cluster ID 6, PP, OVA vs PBS",−0.180
same,Socs3: LN (average fold change),"cluster ID 6, PP, OVA vs PBS",0.385
same,Spsb2: LN (average fold change),"cluster ID 6, PP, OVA vs PBS",−0.508
same,Tgif1: LN (average fold change),"cluster ID 6, PP, OVA vs PBS",−0.548
same,Tnfaip8l2: LN (average fold change),"cluster ID 6, PP, OVA vs PBS",0.307
same,Traf4: LN (average fold change),"cluster ID 6, PP, OVA vs PBS",−0.199
same,Trim25: LN (average fold change),"cluster ID 6, PP, OVA vs PBS",−0.239
same,VgIl4: LN (average fold change),"cluster ID 6, PP, OVA vs PBS",−0.419
same,Vps37b: LN (average fold change),"cluster ID 6, PP, OVA vs PBS",−0.292
same,Wnk1: LN (average fold change),"cluster ID 6, PP, OVA vs PBS",−0.262
same,Zc3h12a: LN (average fold change),"cluster ID 6, PP, OVA vs PBS",−0.495
same,Zfand5: LN (average fold change),"cluster ID 6, PP, OVA vs PBS",−0.220
same,Zfp36l2: LN (average fold change),"cluster ID 6, PP, OVA vs PBS",0.365
same,percentage of expressing cells in OVA-treated group,gene Abhd17c,0.52
same,LN (average fold change),"gene Abhd17c, OVA vs PBS",0.599
same,percentage of expressing cells in OVA-treated group,gene Arf6,0.429
same,LN (average fold change),"gene Arf6, OVA vs PBS",0.610
same,percentage of expressing cells in OVA-treated group,gene Arl4a,0.256
same,LN (average fold change),"gene Arl4a, OVA vs PBS",0.781
same,percentage of expressing cells in OVA-treated group,gene Arl5c,0.04
same,LN (average fold change),"gene Arl5c, OVA vs PBS",−1.873
same,percentage of expressing cells in OVA-treated group,gene Arpc2,0.769
same,LN (average fold change),"gene Arpc2, OVA vs PBS",0.318
same,percentage of expressing cells in OVA-treated group,gene BC031181,0.365
same,LN (average fold change),"gene BC031181, OVA vs PBS",−0.512
same,percentage of expressing cells in OVA-treated group,gene Cbarp,0.193
same,LN (average fold change),"gene Cbarp, OVA vs PBS",0.886
same,percentage of expressing cells in OVA-treated group,gene Ccl1,0.203
same,LN (average fold change),"gene Ccl1, OVA vs PBS",1.335
same,percentage of expressing cells in OVA-treated group,gene Ccrl2,0.192
same,LN (average fold change),"gene Ccrl2, OVA vs PBS",−0.742
same,percentage of expressing cells in OVA-treated group,gene Cd52,0.581
same,LN (average fold change),"gene Cd52, OVA vs PBS",0.644
same,percentage of expressing cells in OVA-treated group,gene Cited2,0.176
same,LN (average fold change),"gene Cited2, OVA vs PBS",−0.724
same,percentage of expressing cells in OVA-treated group,gene Cntnap2,0.074
same,LN (average fold change),"gene Cntnap2, OVA vs PBS",−1.008
same,percentage of expressing cells in OVA-treated group,gene Coq10b,0.332
same,LN (average fold change),"gene Coq10b, OVA vs PBS",−0.690
same,percentage of expressing cells in OVA-treated group,gene Cox8a,0.798
same,LN (average fold change),"gene Cox8a, OVA vs PBS",0.285
same,percentage of expressing cells in OVA-treated group,gene Cwc25,0.061
same,LN (average fold change),"gene Cwc25, OVA vs PBS",−1.439
same,percentage of expressing cells in OVA-treated group,gene Cycs,0.531
same,LN (average fold change),"gene Cycs, OVA vs PBS",0.561
same,percentage of expressing cells in OVA-treated group,gene Ddx5,0.886
same,LN (average fold change),"gene Ddx5, OVA vs PBS",−0.276
same,percentage of expressing cells in OVA-treated group,gene Dtx1,0.05
same,LN (average fold change),"gene Dtx1, OVA vs PBS",−1.600
same,percentage of expressing cells in OVA-treated group,gene Eef1a1,0.997
same,LN (average fold change),"gene Eef1a1, OVA vs PBS",0.236
same,percentage of expressing cells in OVA-treated group,gene Eef1b2,0.709
same,LN (average fold change),"gene Eef1b2, OVA vs PBS",0.395
same,percentage of expressing cells in OVA-treated group,gene Eef2,0.927
same,LN (average fold change),"gene Eef2, OVA vs PBS",0.240
same,percentage of expressing cells in OVA-treated group,gene Eif1,0.996
same,LN (average fold change),"gene Eif1, OVA vs PBS",0.152
same,percentage of expressing cells in OVA-treated group,gene Eif3e,0.67
same,LN (average fold change),"gene Eif3e, OVA vs PBS",0.416
same,percentage of expressing cells in OVA-treated group,gene Eif3h,0.686
same,LN (average fold change),"gene Eif3h, OVA vs PBS",0.298
same,percentage of expressing cells in OVA-treated group,gene Emd,0.235
same,LN (average fold change),"gene Emd, OVA vs PBS",−0.729
